For the experiment, the target named is M116, the C-terminal 116 amino acids of SARS-CoV membrane (M) protein (recombinant cytoplasmic region) (SARS-CoV). The experiment is described as follows: SPR. A general note: In SPR one partner is held on a chip, and binding of the other changes the refractive index at the surface.

pKd: −log10 of the molar value.

For N peptide 101–115, the pKd was 6.14.

The pKd is the Kd on a negative log10 scale, so that one unit is a factor of ten.

The values above are taken from article PMC7103410.
